Test results published in PMC6440998, “Tunable microsecond dynamics of an allosteric switch regulate the activity of a AAA+ disaggregation machine” (Nature Communications, 2019).

Test system: T1, Nc1ncnc2c1ncn2[C@@H]1O[C@H](COP(=O)(O)OP(=O)(O)OP(=O)(O)O)[C@@H](O)[C@H]1O
T1 construct: full length, N-domain, NBD1, M domain, NBD2; pET28b, His6 tag with TEV cleavage site; expressed in E. coli BL21(DE3) pLysS; homohexamer
Assay: purified protein
Type: biochemical, Thermus thermophilus
Conditions: basal activity, no casein, 50 mM HEPES pH 7.8, 50 mM KCl, 10 mM MgCl2, 25 °C, Hill fit

Sequence of TT ClpB (Thermus thermophilus HB8) (chain, as listed by the source): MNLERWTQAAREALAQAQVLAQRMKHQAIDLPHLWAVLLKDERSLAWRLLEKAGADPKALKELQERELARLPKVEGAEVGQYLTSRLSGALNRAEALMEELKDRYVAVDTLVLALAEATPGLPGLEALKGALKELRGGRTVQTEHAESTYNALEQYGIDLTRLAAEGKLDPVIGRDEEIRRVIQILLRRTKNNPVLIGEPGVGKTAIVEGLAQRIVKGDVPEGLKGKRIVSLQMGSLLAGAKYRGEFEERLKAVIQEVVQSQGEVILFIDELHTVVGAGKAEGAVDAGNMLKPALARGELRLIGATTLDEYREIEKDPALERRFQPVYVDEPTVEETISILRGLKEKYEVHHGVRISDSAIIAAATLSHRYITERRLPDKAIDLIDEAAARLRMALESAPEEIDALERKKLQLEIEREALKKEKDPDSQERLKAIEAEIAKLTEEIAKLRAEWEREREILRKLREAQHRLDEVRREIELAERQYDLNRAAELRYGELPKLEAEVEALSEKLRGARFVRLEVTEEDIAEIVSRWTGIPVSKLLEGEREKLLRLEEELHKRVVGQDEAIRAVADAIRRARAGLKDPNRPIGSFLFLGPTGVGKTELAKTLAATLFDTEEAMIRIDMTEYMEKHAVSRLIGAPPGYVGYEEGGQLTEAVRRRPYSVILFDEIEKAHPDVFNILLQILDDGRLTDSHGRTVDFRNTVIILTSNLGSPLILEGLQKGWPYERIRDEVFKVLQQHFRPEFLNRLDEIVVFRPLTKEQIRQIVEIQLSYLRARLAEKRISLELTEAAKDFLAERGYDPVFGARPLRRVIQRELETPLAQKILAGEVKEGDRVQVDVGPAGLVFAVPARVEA

## TT ClpB (Thermus thermophilus HB8)
  K0.5: 390 ± 15 µM
  kcat: 0.0533 ± 0.00167 s⁻¹
